Results from PMC3554717 (2013).

B1: LYP tagged with the myc epitope, Arg620 variant (myc-LYPR) [human] / HA-CSK [not stated] (parent complex)
chain 1: MDQREILQKFLDEAQSKKITKEEFANEFLKLKRQSTKYKADKTYPTTVAEKPKNIKKNRYKDILPYDYSRVELSLITSDEDSSYINANFIKGVYGPKAYIATQGPLSTTLLDFWRMIWEYSVLIIVMACMEYEMGKKKCERYWAEPGEMQLEFGPFSVSCEAEKRKSDYIIRTLKVKFNSETRTIYQFHYKNWPDHDVPSSIDPILELIWDVRCYQEDDSVPICIHCSAGCGRTGVICAIDYTWMLLKDGIIPENFSVFSLIREMRTQRPSLVQTQEQYELVYNAVLELFKRQMDVIRDKHSGTESQAKHCIPEKNHTLQADSYSPNLPKSTTKAAKMMNQQRTKMEIKESSSFDFRTSEISAKEELVLHPAKSSTSFDFLELNYSFDKNADTTMKWQTKAFPIVGEPLQKHQSLDLGSLLFEGCSNSKPVNAAGRYFNSKVPITRTKSTPFELIQQRETKEVDSKENFSYLESQPHDSCFVEMQAQKVMHVSSAELNYSLPYDSKHQIRNASNVKHHDSSALGVYSYIPLVENPYFSSWPPSGTSSKMSLDLPEKQDGTVFPSSLLPTSSTSLFSYYNSHDSLSLNSPTNISSLLNQESAVLATAPRIDDEIPPPLPVRTPESFIVVEEAGEFSPNVPKSLSSAVKVKIGTSLEWGGTSEPKKFDDSVILRPSKSVKLRSPKSELHQDRSSPPPPLPERTLESFFLADEDCMQAQSIETYSTSYPDTMENSTSSKQTLKTPGKSFTRSKSLKILRNMKKSICNSCPPNKPAESVQSNNSSSFLNFGFANRFSKPKGPRNPPPTWNI
chain 2: MSAIQAAWPSGTECIAKYNFHGTAEQDLPFCKGDVLTIVAVTKDPNWYKAKNKVGREGIIPANYVQKREGVKAGTKLSLMPWFHGKITREQAERLLYPPETGLFLVRESTNYPGDYTLCVSCDGKVEHYRIMYHASKLSIDEEVYFENLMQLVEHYTSDADGLCTRLIKPKVMEGTVAAQDEFYRSGWALNMKELKLLQTIGKGEFGDVMLGDYRGNKVAVKCIKNDATAQAFLAEASVMTQLRHSNLVQLLGVIVEEKGGLYIVTEYMAKGSLVDYLRSRGRSVLGGDCLLKFSLDVCEAMEYLEGNNFVHRDLAARNVLVSEDNVAKVSDFGLTKEASSTQDTGKLPVKWTAPEALREKKFSTKSDVWSFGILLWEIYSFGRVPYPRIPLKDVVPRVEKGYKMDAPDGCPPAVYEVMKNCWHLDAAMRPSFLQLREQLEHIKTHELHL

Variants of: B1
Assay: co-immunoprecipitation (IP anti-myc, IB HA), blot densitometry; transfected HEK293 cells; parent: 48.1

| response [arbitrary units] | Variant |
| --- | --- |
| 23.3 | chain 1 P695A |
| 10.3 | chain 1 P615A, chain 1 P618A |
| 0.07 | chain 1 R620W, chain 1 P695A |
| 0.77 | chain 1 P615A, chain 1 P618A, chain 1 P695A |
| 18 | chain 1 R620W |

Variants of: B1
Assay: co-immunoprecipitation (IP anti-myc, IB HA), blot densitometry; HEK293 cells; parent: 64.8

| response [arbitrary units] | Variant |
| --- | --- |
| 0.03 | chain 1 R620F, chain 1 R700F |
| 5.2 | chain 1 R620F |
| 30 | chain 1 R700F |

Variants of: B1
Assay: co-immunoprecipitation (IP anti-myc, IB HA), blot densitometry; transiently transfected HEK293 cells; pEF empty-vector lane 3.67; parent: 57.8

| response [arbitrary units] | Variant |
| --- | --- |
| 19.5 | chain 1 R620W |
| 19.1 | chain 1 I626A, chain 1 V627A |
